From US20260062479A1

Biological target: largest TIRC7 extracellular domain (T-cell immune response cDNA 7) (human) (UniProt Q13488)
Assay: SPR, Biacore T200, 25 C, TIRC7 domain immobilized on CM5 chip, 1:1 kinetic fit

Kd [nM] | koff [s⁻¹] | kon [M⁻¹ s⁻¹] | Binder
0.3 | 0.00013 | 520000 | parent antibody (murine anti-TIRC7 antibody 17-20, cAb1457) (antibody, V domains shown) VH: QVQLKQSGPELVKPGASVKMSCKASGYTFTTYVMHWVKQKPGQGLEWIGYINPYNDGTNYNEKFKGKATLTSDKSSSTAYMELSTLTSEDSAVYYCAEFITKTVGGSNWYLDVWGAGTTVTVSS VL: DIVLTQSPAIMSASPGEKVTMTCSASSSISYIHWFQQKPGTSPKRWIYDTSKLPSGVPARFSGSGSGTSYSLTISSMEAEDAATYYCHQRSSYTWTFGGGTKLEIK
– | – | 1.24e+06 | cAB1467-10.0 (antibody, V domains shown) VH: QVQLVQSGAEVKKPGASVKVSCKASGYTFTTYVMHWVRQAPGKGLEWMGYINPYNDGTNYNEKFKGRVTLTSDKSTSTAYMELSSLRSEDTAVYYCAEFITKTVGGSNWYLDVWGQGTTVTVSS VL: DIQLTQSPSFLSASVGDRVTITCSASSSISYIHWFQQKPGKAPKRWIYDTSKLPSGVPSRFSGSGSGTEYTLTISSLQPEDFATYYCHQRSSYTWTFGGGTKLEIK
– | – | 3.56e+06 | cAB1459-10.0 (antibody, V domains shown) VH: QVQLVQSGAEVKKPGASVKVSCKASGYTFTTYVMHWVRQAPGKGLEWMGYINPYNDGTNYNEKFKGRVTMTEDTSTDTAYMELSSLRSEDTAVYYCAEFITKTVGGSNWYLDVWGQGTTVTVSS VL: DIQLTQSPSFLSASVGDRVTITCSASSSISYIHWFQQKPGKAPKRWIYDTSKLPSGVPSRFSGSGSGTEYTLTISSLQPEDFATYYCHQRSSYTWTFGGGTKLEIK
– | – | 1.13e+06 | cAB1468-10.0 (antibody, V domains shown) VH: QVQLVQSGAEVKKPGASVKVSCKASGYTFTTYVMHWVRQAPGKGLEWMGYINPYNDGTNYNEKFKGRVTLTSDKSTSTAYMELSSLRSEDTAVYYCAEFITKTVGGSNWYLDVWGQGTTVTVSS VL: EIVLTQSPATLSLSPGERATLSCSASSSISYIHWYQQKPGQAPRRLIYDTSKLPSGIPARFSGSGSGTDFTLTISSLEPEDFAVYYCHQRSSYTWTFGGGTKLEIK
